No end group written: not given here. *: point of attachment. FITC = O=C1OC2(c3ccc(O)cc3Oc3cc(O)ccc32)c2ccc(NC(=S)*)cc21
Target: yeast-displayed E4 peptide
Assay: flow cytometry on cells; E4 displayed on yeast cells; FITC-K4-TAMRA added at 100 nM, 15 min, 4 °C, PBS containing 5% immunoblock, two washings; 488 nm laser, 525/50 and 585/30 filters

mean FITC and TAMRA fluorescence: 10000
Binder: {FITC}-KIAALKEKIAALKEKIAALKEKIAALKEC(5‑TAMRA C6 maleimide) [FITC-K4-TAMRA]

From PMC8604967
